In this assay the target is T1, ComPS (residues 563-763 of the histidine kinase ComP from Bacillus amyloliquefaciens Q-426) (Bacillus amyloliquefaciens Q-426).
T1 construct: No removal of the 6xHis tag is described; The forward primer F-BaComPS has an NcoI site followed by AT, which may add Met-Asp before R563; also called BaComPS; truncated ComPS protein; source: E. coli BL21 (RIL), pPROEXHTa vector, purified (Ni-NTA)
Nature of the assay: MST; microscale thermophoresis of ComPS with ComA; labelled partner, buffer and temperature not told in the text shown (curve in Supplementary Figure S8). Particulars: both partners purified. (MST reads how a fluorescent partner responds to local heating, with and without ligand.)

B1: response regulator ComA (natural protein)
chain: MKKILVIDDHPAVMEGTKTILETDTNLSVDCLSPDASEQFVLRHDFSAYDLILMDLNLGDDISGIELSKKILKENPLCKIIVYTGYEVEDYFEESIRAGLHGAISKTESKEKIMQYIYHVLNGQILVDFSYFKQLMTQQKTKTSSSPQSEQDRLTPRERHILQEVEKGLTNQEIADALHLSKRSIEYSLTSIFNKLNVGSRTEAVLIAKSDNVL
With B1, the Kd came to 78 µM.

As usually defined, the Kd is the constant that tells how readily two partners part at equilibrium. A higher Kd goes with weaker binding.
